Here are results for 18 molecules from patent US20120207760A1 (THERACLONE SCIENCES, published 2012).

Assay [1] addresses hemagglutinin (HA) on live influenza A virus A/Wisconsin/67/05 H3N2 (Influenza A virus A/Wisconsin/67/2005 …). The experiment in a line: cell-based or functional assay.
For assay [2], the target named is T1, hemagglutinin (HA) of influenza A/Solomon Islands/3/06 H1N1 (Influenza A virus A/Solomon …). The experiment in a line: ELISA, inactivated whole virions coated; transfection supernatant set 5.
Assay [3] has as its target hemagglutinin (HA) of influenza A/Japan/305/57 H2N2 (Influenza A virus A/Japan/305/1957 …, UniProt P03451 16-562). The assay is described as above.
Assay [4] deals with T1, hemagglutinin (HA) of influenza …. Description: cell-based or functional assay.
Assay [5] concerns the target hemagglutinin (HA) on live influenza A virus A/Solomon Islands/3/06 H1N1 (Influenza A virus A/Solomon …). Description: cell-based or functional assay.

B1: TCN-554 (5277_M05) (antibody, V domains shown)
VH: QVQLVQSGADLKKPGASVKVSCKASGYTFTDYYIHWVRQAPGQGLEWMGWINPESGDTKYAQKFQGRVTMTRDTSITTAYMELGRLRSDDTAVYYCARDVSTTWSWFAPWGQGTLVTVSS
VL: DIVMTQSPDSLAVSLGERATINCRSSQSIFHNSNNENYLAWYQQKPGQPPKLLIYWASTRESGVPDRFSGSGSGTDFTLTISSLQAEDVAVYFCQQYYNAPLTFGGGTKVEIK
As to B1, the “% Neutralization” value in assay [1] stood at 100%.

B2: TCN-554 (5277_M05) (antibody, V domains shown)
VH: QVQLVQSGADLKKPGASVKVSCKASGYTFTDYYIHWVRQAPGQGLEWMGWINPESGDTKYAQKFQGRVTMTRDTSITTAYMELGRLRSDDTAVYYCARDVSTTWSWFAPWGQGTLVTVSS
VL: DIVMTQSPDSLAVSLGERATINCRSSQSIFHNSNNENYLAWYQQKPGQPPKLLIYWASTRESGVPDRFSGSGSGTDFTLTISSLQAEDVAVYFCQQYYNAPLTFGGGTKVEIK
Consider B2, for which the OD450 in assay [2] was 0.18 OD450; in assay [3] it was 0.11 OD450. The “% Neutralization” value in assay [4] stood at 42%.

B3: TCN-539 (5056_A08) (antibody, V domains shown)
VH: QVQLVESGGGVVQPGRSLRLSCAASEITFITYAMHWVRQAPGKGLEWVALISDDGSNKFYADSVKGRFTISRDNSKNTLYLQMNSLRAEDTAAYYCAREGVYFDSGTYRGYFDYWGQETLVTVSS
VL: EIVLTQSPATLSLSPGERATLSCRASQSVSSYLAWYQQKPGQAPRLLIYDASNRATGIPARFSGSGSGTDFTLTISSLEPEDFAVYYCQQRSHWPPITFGQGTRLEIK
As to B3, the “% Neutralization” value in assay [1] stood at 99%.

B4: TCN-550 (5096_F06) (antibody, V domains shown)
VH: QVQLQESGPGLVKPSETLSLTCTVSGASINSHYWSWIRQPPGKGLEWIGYVYYSGSTTYNPSLKSRVTLSVDTSKNQFSLNLSSVTAADTAFYYCARHPYDVLTGSGDWFDPWGQGTLVTVSS
VL: SYVLTQAPSVSVAPGQTARITCGGNAIGSKKVHWYQHKAGQAPVLVVYDDTDRPSGIPERFSGSNSWSTATLTINRVEAGDEADYYCQVWDFTIDHVVFGGGTKLTVL
Consider B4, for which, in assay [1], the “% Neutralization” value is 100%.

B5: TCN-552 (5249_I23) (antibody, V domains shown)
VH: QVQVVQSGAEVKKPGSSVRVSCQASGGTFMNYAIIWVRRAPGQGLEWMGGIIPVFPTPNYAQMFQGRVTISTDESRSTSFLELTNLRYEDTAVYYCARRIYHGGNSGFDFWGQGTLVTVSS
VL: EIVLTQSPATLSLSPGERATLSCRASQSVGNYLAWYQQKPGQAPRLLIYDSSNRAPGIPARFSGSGSGTDFTLTISSLAPEDFAVYYCQQRSKWPPMYSFGHGTKLEIK
On to B5, for which the “% Neutralization” value came out at 14% in assay [1] and 0% in assay [5].

B6: TCN-536 (5095_N01) (antibody, V domains shown)
VH: QVQLQQWGAGLLKPSETLSLTCAVYGGSFSVSGYYWSWIRQPPGRGLEWIGEISHGGSTNYNPSLKSRVTISVDTTKNQFSLRLSSVTAADTAVYYCARGTDPDTEVYCRVGNCAAFDYWGQGSLVTVSS
VL: EIILAQSPGTLSLSPGERATLSCRASQFVSTRSLAWYQQRPGQAPRLLIYGASSRATGIPDRFSGSGSGTDFTLTISRLEPEDFAVYYCQHYGYSPRYAFGQGSKVEIK
As to B6, the “% Neutralization” value in assay [1] amounted to 99.9%; in assay [5], 81.6%.

B7: TCN-553 (5261_C18) (antibody, V domains shown)
VH: QVQVVQSGTEVKKPGSSVKVSCQTSGGRFMSYAITWVRQAPGQGLEWMGGIVPVFGTANYAQKFQGRVTITTDDSTRTAYMELSSLRSEDTAVYYCGFRYGSGYGFDSWGQGTLVTVSS
VL: EIVLTQSPGTLSLSPGERATLSCRASQSVSSSYLAWYQKKPGQAPRLLIYGASTRATGIPDRFTGSGSGTDFTLSISRLEPEDFAVYYCQHFGTSVFTFGGGTKVEIK
Regarding B7, the “% Neutralization” value in assay [1] is 5%; in assay [5] it was 44%.

B8: TCN-553 (5261_C18) (antibody, V domains shown)
VH: QVQVVQSGTEVKKPGSSVKVSCQTSGGRFMSYAITWVRQAPGQGLEWMGGIVPVFGTANYAQKFQGRVTITTDDSTRTAYMELSSLRSEDTAVYYCGFRYGSGYGFDSWGQGTLVTVSS
VL: EIVLTQSPGTLSLSPGERATLSCRASQSVSSSYLAWYQKKPGQAPRLLIYGASTRATGIPDRFTGSGSGTDFTLSISRLEPEDFAVYYCQHFGTSVFTFGGGTKVEIK
B8: the OD450 in assay [2] was determined as 3.56 OD450; in assay [3], 3.28 OD450. Moreover, the “% Neutralization” value in assay [4] is 87%.

B9: TCN-555 (5246_L16) (antibody, V domains shown)
VH: QVQLVQSGAEVKRPGSSVKVSCTASGGIFRKNAISWVRQAPGQGLEWMGGIIAVFNTANYAQKFQNRVKITADESGNTAYMELSSLTSDDTAVYYCASHPKYFYGSGSYPDFWGQGTLVTVSS
VL: QSALTQPRSVSGSPGQSITISCTGGSSDIGASNSVSWYQQHPGKAPKLVIFDVTERPSGVPHRFSGSKSGNTASLTVSGLQPDDEADYFCCAYGGKYLVVFGGGTKVTVL
B9: the results for the OD450 in assay [2] and in assay [3] were 3.57 OD450 and 2.1 OD450, respectively. The “% Neutralization” value in assay [4] is 48%.

B10: TCN-538 (3206_O17) (antibody, V domains shown)
VH: QITLKESGPTLVKPTQTLTLTCVFSGFSLSITGVRVGWIRQPPGKALEWLALISWDDEKHYSPSLQSRLTITKDTSKNQVVLTMTNLDPVDTATYYCARSTDRGHVLRYFGWMLPGDAFDVWGQGTMVTVSS
VL: DIVMTQSPDFLPVSLGERATINCKSSQRVLYSSNNKNYLAWYQLKPGQPPKLIIYWASTRESGVPDRFSGSGSGTEFTLTISSLQAEDVAVYYCQQYYSRPYTFGQGTKLEIK
As to B10, the “% Neutralization” value is 0% in assay [1] and 21% in assay [5].

B11: TCN-543 (5081_G23) (antibody, V domains shown)
VH: QVHLVQSGAEVRKPGDSVKVSCKTSGYTFSTYPVAWVRQVPGQGLEWMGWISTYNGNTNFAQNFQGRVTLTTDTTTNTAYMEVRSLKFDDTAVYYCARVEGSYRDFWNNQNRFDPWGQGTLVTVSS
VL: SYVLTQPPSVSVAPGQTARISCGGSNIGGKSVHWYQQKPGQAPVLVVYDDSGRPSGIPERFSGSNSGDTATLTISRVEAGDEADYFCQVWDNFGGVFGTGTKVTVL
Take B11: the “% Neutralization” value worked out at 73% in assay [1] and 98% in assay [5].

B12: TCN-544 (5082_A19) (antibody, V domains shown)
VH: QVQLQESGPGLVKPSETLSLTCTVSRGSIGHYFWSWIRQPPGKGLEWIGYISYSGSTKYNPSLRSRVTISVDTSKNQFSLNLNSVTATDTALYYCAREDYDILTGAGPGMEVWGQGTTVTVSS
VL: QSMLTQPPSASGTPGQRVTISCSGSSSNIGSNTVNWFKHLPGTAPKLLIYRNDLRPSGVPDRFSGSKSGTSASLAISGLQSEDEADYYCATWDDSLNGFYVFGTGTKVTVL
As for B12, in assay [1], the “% Neutralization” value was 97%.

B13: TCN-551 (5243_D01) (antibody, V domains shown)
VH: EVQLVQSGSEVKKPGESLKISCKGSGYSFSNYWIGWVRHMPGKGLEWMGIIYPGDSDTRYSPSFQGQVTMSADKSSSTVYLQWSSLKASDTAIYYCARRGGHSFGYGSGGDTHSEFDSWGQGTLVTVSS
VL: QSVLTQSPSVSAAPGQKVTISCSGSDSNIGDYFVCWYQHLPGKPPQLLIYENNKRPSGIPDRFSGSKSGTSATLGITGIQTGDEADYYCATWDGSLSAWVFGGGTKLTVL
For the molecule B13, the “% Neutralization” value in assay [1] came out at 6%; in assay [5], 99%.

B14: TCN-560 (5084_P10) (antibody, V domains shown)
VH: EVQLVESGGGLVQPGGSLRLSCAASGFIFRNYWMSWVRQAPGKGLEWVANIKQDGREKYYVDSLRGRVNISRDNAENSLYLHMNSLRVEDTAVYFCARARMVVVTGDGFDVWGHGTMVTVSS
VL: DIQMTQSPSSLSASVGDRVTITCRASQNIKRYFNWYQQKPGKAPKLLIYAASNLENGVPSRFSGSGSGTDFTLTISSLQPEDFATYYCQQSFSKSWTFGQGTNVDIK
On to B14, for which the figures for the OD450 in assay [2] and in assay [3] were 3.52 OD450 and 3.55 OD450, respectively. For the same molecule, the “% Neutralization” value in assay [4] came out at 94%.

B15: TCN-537 (3194_D21) (antibody, V domains shown)
VH: QVQLQQWGSGLLKPSETLSLTCAVYGGSFRDDYWTWIRQPPGKGLEWIGEINHSGRTNYNPSLKSRVTISVDTSLKQFSLKVISVTAADTAVYYCARGTSHVSRYFDWLPPTNWFDPWGQGTQVTVSS
VL: DIVLTQSPGTLSLSPGERATLSCRASQSVSSSYLAWYQQKPGQAPRLVMYGAATRATGIPDRFSGSGSGPDFTLTISRLEPEDFAMYYCQQYGNSPITFGQGTRLEIK
Regarding B15, the “% Neutralization” value in assay [1] and in assay [5] was 0% throughout.

B16: TCN-540 (5060_F05) (antibody, V domains shown)
VH: QVQLVQSGGGVVQPGRSLRLSCAASGFTFSSYAMHWVRQAPGKGLEWVAIISYDGNDQYYTDSVKGRFTISRDSSKVYLQMHRLRPEDTAVYYCAKEFETSGYFHGSFDYWGQGILVTVSS
VL: QSALTQPASVSGSPGQSITISCTGTSSDVGGYNYVSWYQQHPGKAPKLLIYEVTNWPSGVSNRFSGSKSGNTASLTISGLQAEDEADYYCSSYAGSSTWVFGGGTRVTVL
B16: the “% Neutralization” value turned out to be 98% in assay [1] and 3% in assay [5].

B17: TCN-545 (5082_I15) (antibody, V domains shown)
VH: QVQLQQWGAGLLKPSETLSLSCAVFGGSFSDYYWTWIRQPPGKGLEWIGEIKHSGRTNYNPSLESRVTISVDTSKNQFSLKLSSVTAADTAIYYCARGTDPDTEGYCRSGSCSAFDFWGQGTLVTVSS
VL: EIVLTQSPGTLSLSPGERATLSCRASHFVNYRSLAWYQQTPGQVPRLLIYGASTRATGIPDRFSGSGSGTDFTLTISRLEPEDFAVYFCQQYGGSPRYTFGQGTRLEIK
Take B17: the “% Neutralization” value in assay [1] came to 99%; in assay [5], 88%.

B18: TCN-534 (5249_B02) (antibody, V domains shown)
VH: QVQLVQSGAEVKKPGSSVKVSCRESGGTFNGYTITWVRQAPGQGLEWMGGIIPMMGTVNYAQKLQGRVTITTDYFTKTAYMDLNNLRSEDTAMYYCVKIRYTGQQLLWGQGTLVTVSS
VL: DIQMTQSPSTLSASIGDRVTITCRASQSIASWLAWYQQKPGKAPKLLIYEAVNLESGVPSRFSGSGSGTDFTLTISSLQPDDFATYFCQHYGTISQTFGGGTKVEIK
As to B18, the “% Neutralization” value in assay [1] was determined as 0%; in assay [5] it was 65.7%.
